# Test results published in patent US20230080224A1 (AGENCY FOR SCIENCE TECHNOLOGY AND RESEARCH, published 2023).
# Where a chain is given by its changes, count along the chain named.
# T1: ALPI (screening and SPR/ELISA protein) (UniProt P09923 20-503, limits assumed)
# T1 sequence (looked up): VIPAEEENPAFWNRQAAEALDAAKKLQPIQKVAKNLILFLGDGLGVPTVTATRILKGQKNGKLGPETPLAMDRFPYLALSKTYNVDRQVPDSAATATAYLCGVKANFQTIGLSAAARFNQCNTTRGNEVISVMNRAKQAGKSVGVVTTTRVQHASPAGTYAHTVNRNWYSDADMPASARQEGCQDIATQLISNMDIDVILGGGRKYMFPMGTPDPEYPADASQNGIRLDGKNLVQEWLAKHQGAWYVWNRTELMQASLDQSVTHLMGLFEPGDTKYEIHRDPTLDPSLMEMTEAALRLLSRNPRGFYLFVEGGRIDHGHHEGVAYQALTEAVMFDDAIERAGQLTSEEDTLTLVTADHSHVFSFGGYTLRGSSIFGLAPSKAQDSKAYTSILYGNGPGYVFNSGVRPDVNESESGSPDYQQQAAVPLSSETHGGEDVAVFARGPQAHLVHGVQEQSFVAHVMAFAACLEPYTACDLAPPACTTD
# T2: human ALPPL2 (recombinant protein) (human, UniProt P10696 20-503)
# T2 chain: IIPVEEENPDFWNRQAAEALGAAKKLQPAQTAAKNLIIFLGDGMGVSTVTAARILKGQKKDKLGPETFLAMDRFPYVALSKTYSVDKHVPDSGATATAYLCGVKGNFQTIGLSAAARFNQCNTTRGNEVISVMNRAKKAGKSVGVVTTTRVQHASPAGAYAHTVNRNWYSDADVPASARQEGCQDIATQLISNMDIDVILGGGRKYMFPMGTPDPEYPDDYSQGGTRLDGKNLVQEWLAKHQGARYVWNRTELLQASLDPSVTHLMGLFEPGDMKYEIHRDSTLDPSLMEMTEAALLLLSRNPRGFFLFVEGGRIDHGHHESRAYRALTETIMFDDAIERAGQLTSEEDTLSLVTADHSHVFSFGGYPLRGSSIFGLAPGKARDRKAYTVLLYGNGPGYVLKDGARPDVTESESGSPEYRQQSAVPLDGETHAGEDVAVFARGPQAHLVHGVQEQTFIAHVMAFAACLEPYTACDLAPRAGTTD
# B1: AB2C133 (antibody, V domains shown)
# VH: QSLEESGGDLVKPGASLTLTCTASGLDFSSSYWICWVRQAPGKGLEWIGCIKTATETTVYASWAKGRFTISKTSSTTVTLQMTSLTAADTATYLCAKTYADNGGYINLWGPGTLVTVSS
# VL: LVMTQTPSSVSAAVGGTVTINCQASQNIYNNLAWYQQKPGQRPKLLIYGASNLESGVPSRFKGSGSGTEYTLTISDLECDDAATYYCQSADLTSSINVFGGGTEVVVK
# notes: Rabbit antibody cloned from a single B cell
# B2: AB2C124 (antibody, V domains shown)
# VH: QEQLVESGGGLVQPEGSLTLTCTASGFSFSSSYFMCWVRQAPGKGLEWIACIYTGDGNNYYASWAKGRFTISKTSSTTVTLQMTSLTAADTATYFCSRGGSYYAYGYAGYDYYPDAFDYWGPGTLVTVSS
# VL: DIVMTQTPASVEVAVGGTVTIKCQASQSISSYLSWYQQKPGQPPKLLIYRASTLASGVPSRFKGSGSGTQFTLTISDLECADAATYYCQSYYYSSSGSYGFGGGTEVVVK
# notes: as for B1
# B3: AB2C102 (antibody, V domains shown)
# VH: QQQLEESGGDLVQPGASLTLTCTASGFSFNSNYWMCWGRQAPGKGLEWIGCILFGNTDTYYANWAKGRFTISKTSSTTVTLQMTSLTAADTATYFCARSVSGVGSAWNLWGPGTLVTVSS
# VL: IVMTQTPSSKSVPVGDTVTINCQASESVYNNNHLAWYQQKPGQSPKLLIYLASILDSGVPSRFKGSGSGTQFTLTISDVVCDDAATYYCAGYKGITIDGSAFGGGTELVVK
# notes: as for B1
# B4: AB1C10 (antibody, V domains shown)
# VH: QSLEESGGDLVKPGASLTLTCTASGFDFSSNGMCWVRQAPGKGLEWIACIYVDSSDNTNYASWVNGRFTISRTSSTTVTLQMTSLTAADTATYFCARGYGYVGSAMDLWGQGTLVTVSS
# VL: DIVMTQTPASVEAAVGGTVTIKCQASQSINNELSWYQQKPGQRPKLLIYGASTLESGVPSRFSGSGSGTEFTLTISDLECADAATYYCQSAYYSSSSSYANTFGGGTEVVVK
# notes: as for B1
# B5: AB1C25 (antibody, V domains shown)
# VH: B4 VH with N57S, N59Y
# VL: B4 VL with N30S, V111A, K112A
# notes: as for B1
# B6: AB1C31 (antibody, V domains shown)
# VH: B4 VH with T79D, Q81K
# VL: B4 VL with N30S
# notes: as for B1
# B7: AB1C19 (antibody, V domains shown)
# VH: QSLEESGGDLVQPEGSLTLTCKASGFDFSTNIMCWVRQAPGKGLEWIACIYAGDGSTYYASWVNGRFTISKTSSTTVTLQMTSLTAADTATYFCARASTYWNYGYAGYGYYPGYFNLWGPGTLVTVSS
# VL: DIVMTQTPASVEAAVGGTVTIKCQASQSIISALAWYQQKPGQPPKLLIYAASTLASGVPSRFKGSGSGTQFTLTISDLECADAATYYCQTYAYSTKSNYGSVFGGGTEVVVK
# notes: as for B1
# B8: AB1C29 (antibody, V domains shown)
# VH: QEHLEESGGGLVKPEGSLTLTCTASGFSFSSSYYMCWVRQAPGKGLEWIACIYPDDGNTYYASWAKGRFTISKTSSTTVTLQMTSLTAADTATYFCARALAYYAYVDGGHSYAINDFDLWGPGTLVTVSS
# VL: QVLTQTPSSVSAAVGGTVTINCQSSQSVFSNDYFSWYQQKPGQPPKLLIYDASRLASGVPSRFKGSGSGTQFTLTISGVQCDDAATYYCQGTYYSSAWYNAFGGGTEVVVK
# notes: as for B1
# B9: AB2C127 (antibody, V domains shown)
# VH: QSLEESGGDLVKPGASLTLTCTASGFSFNSYYMCWVRQAPGKGLEWIACISGGSSDNTYYASWAKGRFTTSKTSSTTVTLQMTSLTAADTATYFCARDIPRSGYFGCDLWGPGTLVTVSS
# VL: VVMTQTPASVSEPVGGTVTIKCQASQNIYSNLAWYQQKPGQRPKLLIYGASNLESGVPSRFKGSGSGTEYTLTISNLECADAATYYCQSTVYNSNYANTFGGGTEVVVK
# notes: as for B1
# B10: AB1C12 (antibody, V domains shown)
# VH: QSLEESGGDLVKPGASLTLTCTASGFSFSSSYWISWVRQAPGKGLEWIACIAIGSSGTTYYASWAKGRFTISKTSSTTVTLQMTSLTAADTATYFCARSGDGYTYVELWGPGTLVTVSS
# VL: DVVMTQTPASVSEPVGGTVTIKCQASQSISSYLAWYQQKPGQPPKLLIYRASTLASGVPSRFKGSGSGTQFTLTISDLECADAATYYCQNYYDIDDSDNTFGGGTEVVVK
# notes: as for B1
# B11: AB2C136 (antibody, V domains shown)
# VH: QEQLEESGGDLVKPGASLTLTCTASGFSFNSNYYMCWVRQAPGKGLEWIACIYTGIVVPTYYASWAKGRFTISKTSSTTVTLQMTSLTAADTATYFCARDPYVGSSYIYNLWGPGTLVTVSS
# VL: LVMTQTPSPVSAAVGSTVTISCQSSQSVYNNNNLAWYQQKPGQPPKLLIYSASSLASGVPSRFKGSGSGTQFTLTISGVECDDAATYYCAGYKTYSNNENAFGGGTEVVVK
# notes: as for B1
# B12: AB2C131 (antibody, V domains shown)
# VH: QSLEESGGGLVQPEGSLTLTCTASGFSFSSSYYMCWVRQAPGKGLEWIACIYAGSTFSTYYASWAKGRFTISKTSSTTVTLQMTSLTAADTATYFCARSDSYYTYGYAGYAYAIFNLWGPGTLVTVSS
# VL: LVMTQTPSSVSAAVGGTVTINCQASESIYSNLAWYQQKPGQPPKLLIYLASTLASGVPSRFKGSGSGTEFTLTISDLECADAATYYCQSAYYSSSADIAFGGGTEVVVK
# notes: as for B1
# B13: AB2C129 (antibody, V domains shown)
# VH: QSLEESGGDLVKPGASLTLTCTASGFSFSSSYWICWVRQAPGKGLEWIACIYAGSSGDTYYASWAKGRFTISKTSSTTVTLQTTSLTAADTATYFCARAEYIDGYADYTYTTLYYFDLWGPGTPVTVSS
# VL: DVVMTQTPASVSEPVGGTVTINCQASESINSWLAWYQQKPGQPPKLLIYSASTLASGVPSRFKGSGSGIEFTLTISDLECADAATYFCQSYYSFSRFAFGGGTEVVVK
# notes: as for B1
# B14: humanized C15 (antibody, human IgG1, V domains shown)
# VH: EVQLVESGGGLVQPGGSLRLSCAASGFSFSSSYYMCWVRQAPGKGLEWIACIYTTYGGTWYASWAKGRFTISRDNSKNTLYLQMNSLRAEDTAVYYCARSSISDVTYFNLWGQGTLVTVSS
# VL: DIQMTQSPSSLSASVGDRVTITCQASQSISNYLAWYQQKPGKVPKLLIYRASTLESGVPSRFSGSGSGTDFTLTISSLQPEDVATYYCQSYYDNNNYAFGQGTKVEIK
# notes: CDRs grafted to a human IgG1 framework; recombinant; also called hC15
# Target: T3, human ALPPL2 (recombinant protein) (human, UniProt P10696 20-503, limits assumed)
# T3 construct: biotinylated where captured on streptavidin
# Test: screen of rabbit B-cell clones by ELISA and FACS
# Text: (§1) Specific clones were screened and identified by ELISA and high throughput flow cytometry (FIG. 3). Rabbit kidney cells were transfected with either truncated (for ELISA screen) or full-length (for FACS screen) ALPI and ALPPL2.
row,Binder,binding result
1,B1,binds
2,B2,binds
3,B3,binds
4,B4,binds
5,B5,binds
6,B6,binds
7,B7,binds
8,B8,binds
9,B9,binds
10,B10,binds
11,B11,binds
12,B12,binds
13,B13,binds

# Target: T1, ALPI (screening and SPR/ELISA protein)
# Test: screen of rabbit B-cell clones by ELISA and FACS
# Text: as §1
row,Binder,binding result
1,B1,no binding
2,B2,no binding
3,B3,no binding
4,B4,no binding
5,B5,no binding
6,B6,no binding
7,B7,no binding
8,B8,no binding
9,B9,no binding
10,B10,no binding
11,B11,no binding
12,B12,no binding
13,B13,no binding

# Target: T2, human ALPPL2 (recombinant protein)
# Test: BLI; single concentration
row,Binder,Kd [pM]
1,B1,1000
2,B2,1600
3,B3,500
4,B4,150
5,B5,1400
6,B6,400
7,B7,1690
8,B8,200
9,B9,1700
10,B10,800
11,B11,100
12,B12,8000
13,B13,1

# Target: human ALPP (recombinant protein) (human, UniProt P05187 23-506, limits assumed)
# Test: SPR, Biacore T200, ligand captured by streptavidin on CM5 chip, antibody as analyte
# Protocol: (§2) Select clones (C4, C15, C131, C12, C18, C36 and C53) were humanized by grafting the CDRs to a human IgG1 framework. […] Surface plasmon resonance was studied using Biacore T200. Ligands (e.g. ALPPL2 or ALPP) were immobilized on biosensors CM5 chips captured with the streptavidin. Ligands-loaded sensors were then incubated with different concentrations of analyte (recombinant expressed humanized antibody clones) to measure affinity.
# Sequence of human ALPP (recombinant protein) (P05187 23-506 limits assumed): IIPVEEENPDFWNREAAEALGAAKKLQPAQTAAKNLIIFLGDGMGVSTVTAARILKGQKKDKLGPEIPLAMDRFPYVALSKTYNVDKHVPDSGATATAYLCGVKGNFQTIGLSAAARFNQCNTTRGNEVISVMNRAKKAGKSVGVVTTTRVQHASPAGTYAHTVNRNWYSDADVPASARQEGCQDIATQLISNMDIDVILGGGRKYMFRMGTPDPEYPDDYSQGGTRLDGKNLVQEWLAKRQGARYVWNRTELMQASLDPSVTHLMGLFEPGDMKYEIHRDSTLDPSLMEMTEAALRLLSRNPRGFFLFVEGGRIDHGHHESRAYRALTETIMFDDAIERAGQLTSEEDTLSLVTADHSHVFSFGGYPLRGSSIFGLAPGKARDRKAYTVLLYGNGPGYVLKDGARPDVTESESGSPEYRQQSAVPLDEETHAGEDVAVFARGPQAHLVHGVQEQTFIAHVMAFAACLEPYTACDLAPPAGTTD
row,Binder,binding result
1,B14,binds

# Target: T3, human ALPPL2 (recombinant protein)
# Test: as above
# Protocol: as §2
row,Binder,binding result
1,B14,binds
